One substance from paper PMC12618757 can be followed below.

The assay addresses EGFP-mPiezo1 (murine Piezo1 fused to EGFP) (murine) (UniProt E2JF22).
Sequence of UniProt E2JF22 (E2JF22 whole entry, the tested form may be a part): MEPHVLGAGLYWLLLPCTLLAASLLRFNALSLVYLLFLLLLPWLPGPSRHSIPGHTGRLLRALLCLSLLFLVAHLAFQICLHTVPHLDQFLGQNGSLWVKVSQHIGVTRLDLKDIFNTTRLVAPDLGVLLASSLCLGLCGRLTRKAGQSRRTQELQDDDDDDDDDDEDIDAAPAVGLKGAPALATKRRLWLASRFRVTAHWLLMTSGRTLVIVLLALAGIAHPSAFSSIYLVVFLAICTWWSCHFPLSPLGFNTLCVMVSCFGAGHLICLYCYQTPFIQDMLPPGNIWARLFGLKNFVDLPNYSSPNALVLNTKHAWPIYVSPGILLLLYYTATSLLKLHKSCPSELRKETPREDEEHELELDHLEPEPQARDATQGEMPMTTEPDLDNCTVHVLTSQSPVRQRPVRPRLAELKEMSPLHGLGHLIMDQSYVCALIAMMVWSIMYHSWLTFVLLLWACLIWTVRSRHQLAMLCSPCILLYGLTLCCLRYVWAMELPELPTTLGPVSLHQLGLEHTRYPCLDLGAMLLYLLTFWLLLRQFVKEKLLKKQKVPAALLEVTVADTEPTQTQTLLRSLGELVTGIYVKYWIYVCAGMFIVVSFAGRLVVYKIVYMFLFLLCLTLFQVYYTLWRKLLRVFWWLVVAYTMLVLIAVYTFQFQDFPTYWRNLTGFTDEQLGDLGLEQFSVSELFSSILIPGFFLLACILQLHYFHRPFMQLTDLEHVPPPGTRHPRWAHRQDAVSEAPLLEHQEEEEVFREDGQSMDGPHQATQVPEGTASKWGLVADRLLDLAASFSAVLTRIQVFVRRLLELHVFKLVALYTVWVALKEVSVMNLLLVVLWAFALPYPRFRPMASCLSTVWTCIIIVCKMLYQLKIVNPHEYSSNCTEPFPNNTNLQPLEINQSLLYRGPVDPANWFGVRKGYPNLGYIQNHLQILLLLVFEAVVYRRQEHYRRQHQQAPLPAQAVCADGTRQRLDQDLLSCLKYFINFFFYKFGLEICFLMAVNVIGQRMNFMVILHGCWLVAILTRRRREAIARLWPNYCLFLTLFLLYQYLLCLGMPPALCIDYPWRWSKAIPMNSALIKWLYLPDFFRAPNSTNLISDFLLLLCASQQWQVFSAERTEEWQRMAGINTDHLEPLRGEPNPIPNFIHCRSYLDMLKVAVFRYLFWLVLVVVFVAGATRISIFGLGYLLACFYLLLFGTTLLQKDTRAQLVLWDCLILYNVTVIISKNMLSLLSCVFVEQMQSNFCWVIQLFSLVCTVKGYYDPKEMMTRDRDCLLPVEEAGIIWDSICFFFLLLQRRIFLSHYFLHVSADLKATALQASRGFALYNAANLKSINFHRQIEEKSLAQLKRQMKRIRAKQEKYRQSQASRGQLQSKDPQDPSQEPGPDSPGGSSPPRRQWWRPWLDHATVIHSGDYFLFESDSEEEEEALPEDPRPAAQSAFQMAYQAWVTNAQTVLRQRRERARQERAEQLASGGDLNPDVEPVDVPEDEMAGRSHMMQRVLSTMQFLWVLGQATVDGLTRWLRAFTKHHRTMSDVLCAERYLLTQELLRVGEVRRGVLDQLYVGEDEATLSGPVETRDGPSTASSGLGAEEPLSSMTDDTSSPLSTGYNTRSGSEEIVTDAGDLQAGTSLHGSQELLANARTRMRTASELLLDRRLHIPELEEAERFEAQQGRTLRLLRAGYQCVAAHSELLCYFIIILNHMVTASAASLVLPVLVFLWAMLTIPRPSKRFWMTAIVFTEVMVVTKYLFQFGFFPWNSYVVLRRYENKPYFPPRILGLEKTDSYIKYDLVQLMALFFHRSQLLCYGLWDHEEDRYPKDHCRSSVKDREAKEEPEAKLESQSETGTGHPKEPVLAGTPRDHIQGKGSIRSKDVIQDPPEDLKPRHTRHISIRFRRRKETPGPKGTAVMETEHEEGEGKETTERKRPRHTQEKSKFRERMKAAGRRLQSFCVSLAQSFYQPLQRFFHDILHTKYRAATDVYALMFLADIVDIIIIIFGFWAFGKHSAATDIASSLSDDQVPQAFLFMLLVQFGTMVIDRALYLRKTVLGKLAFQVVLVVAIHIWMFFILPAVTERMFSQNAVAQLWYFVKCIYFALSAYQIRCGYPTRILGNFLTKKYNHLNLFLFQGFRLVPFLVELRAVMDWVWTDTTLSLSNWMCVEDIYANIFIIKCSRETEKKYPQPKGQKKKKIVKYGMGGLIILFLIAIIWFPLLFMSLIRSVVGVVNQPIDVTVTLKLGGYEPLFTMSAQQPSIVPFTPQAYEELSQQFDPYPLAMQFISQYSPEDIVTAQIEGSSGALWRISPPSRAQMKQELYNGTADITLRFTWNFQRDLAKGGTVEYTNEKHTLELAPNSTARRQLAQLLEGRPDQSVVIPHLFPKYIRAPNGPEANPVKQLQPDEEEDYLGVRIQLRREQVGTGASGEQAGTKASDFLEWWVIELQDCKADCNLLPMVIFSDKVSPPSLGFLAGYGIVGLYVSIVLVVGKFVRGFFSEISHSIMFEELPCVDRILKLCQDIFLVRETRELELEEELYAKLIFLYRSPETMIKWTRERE

In the case of LecB-S22A mutant (natural protein), the average stretch-induced current at −80 mmHg, EGFP-mPiezo1-overexpressing H1299 cells, LecB-S22A for 3 h (not significantly changed compared to untreated control cells) is -36.5 pA.
